Results reported in article PMC4156530 (Journal of neurochemistry, 2014).

What was measured:
[1] = molecular target: the molecule itself; assay: cross-linking
[2] = molecular target: the molecule itself; assay: AUC

Row | Protein | binding result [1] | stoichiometry N [2]
1 | human DJ-1 C106S, recombinant, tag-cleaved (natural protein) GSHMASKRALVILAKGAEEMETVIPVDVMRRAGIKVTVAGLAGKDPVQCSRDVVICPDASLEDAKKEGPYDVVVLPGGNLGAQNLSESAAVKEILKEQENRKGLIAAISAGPTALLAHEIGFGSKVTTHPLAKDKMMNGGHYTYSENRVEKDGLILTSRGPGTSFEFALAIVEALNGKEVAAQVKAPLVLKD | binds | –
2 | human DJ-1 E18D, recombinant, tag-cleaved (natural protein, uniformly 15N-labelled in the NMR experiment; fully reduced) GSHMASKRALVILAKGAEEMDTVIPVDVMRRAGIKVTVAGLAGKDPVQCSRDVVICPDASLEDAKKEGPYDVVVLPGGNLGAQNLSESAAVKEILKEQENRKGLIAAICAGPTALLAHEIGFGSKVTTHPLAKDKMMNGGHYTYSENRVEKDGLILTSRGPGTSFEFALAIVEALNGKEVAAQVKAPLVLKD | – | 2
3 | human DJ-1 E18Q, recombinant, tag-cleaved (natural protein, unlabelled preparation fully reduced; the 15N-labelled preparation of the NMR experiment 43% oxidised (Cys106-SO2-)) GSHMASKRALVILAKGAEEMQTVIPVDVMRRAGIKVTVAGLAGKDPVQCSRDVVICPDASLEDAKKEGPYDVVVLPGGNLGAQNLSESAAVKEILKEQENRKGLIAAICAGPTALLAHEIGFGSKVTTHPLAKDKMMNGGHYTYSENRVEKDGLILTSRGPGTSFEFALAIVEALNGKEVAAQVKAPLVLKD | – | 2
